Positions count from the first letter of the chain named. Names may count otherwise.
B1: CE115HA000 D101P one-arm antibody (antibody, human IgG1, kappa, L234A L235A, N297A, name in Kabat numbering)
heavy: QVQLVESGGGVVQPGRSLRLSCAASGFTFSNAWMHWVRQAPGKGLEWVAQIKAKSNNYATYYAESVKGRFTISRDDSKNSLYLQMNSLKTEDTAVYYCRYVHYGAYYGVPAWGQGTTVTVSSASTKGPSVFPLAPSSKSTSGGTAALGCLVKDYFPEPVTVSWNSGALTSGVHTFPAVLQSSGLYSLSSVVTVPSSSLGTQTYICNVNHKPSNTKVDKKVEPKSCDKTHTCPPCPAPEAAGGPSVFLFPPKPKDTLMISRTPEVTCVVVDVSHEDPEVKFNWYVDGVEVHNAKTKPREEQYASTYRVVSVLTVLHQDWLNGKEYKCKVSNKALPAPIEKTISKAKGQPREPQVYTLPPSRCELTKNQVSLSCAVKGFYPSDIAVEWESNGQPENNYKTTPPVLDSDGSFFLVSKLTVDKSRWQQGNVFSCSVMHEALHNHYTQKSLSLSPDYKDDDDK
chain: EPKSSDKTHTCPPCPAPELLGGPSVFLFPPKPKDTLMISRTPEVTCVVVDVSHEDPEVKFNWYVDGVEVHNAKTKPREEQYNSTYRVVSVLTVLHQDWLNGKEYKCKVSNKALPAPIEKTISKAKGQPREPQVCTLPPSRDELTKNQVSLWCLVKGFYPSDIAVEWESNGQPENNYKTTPPVLDSDGSFFLYSKLTVDKSRWQQGNVFSCSVMHEALHNRYTQKSLSLSP
light: DIVMTQSPLSLPVTPGEPASISCRSSQSLVHSNRNTYLHWYQQKPGQAPRLLIYKVSNRFSGVPDRFSGSGSGTDFTLKISRVEAEDVGVYYCGQGTQVPYTFGQGTKLEIKRTVAAPSVFIFPPSDEQLKSGTASVVCLLNNFYPREAKVQWKVDNALQSGNSQESVTEQDSKDSTYSLSSTLTLSKADYEKHKVYACEVTHQGLSSPVTKSFNRGEC
B2: CE115HA000 E61Q one-arm antibody (antibody, human IgG1, kappa, L234A L235A, N297A, name in Kabat numbering)
heavy: B1 heavy with E64Q, P110D
chain: B1 chain
light: B1 light
B3: CE115HA000 G98A one-arm antibody (antibody, human IgG1, kappa, L234A L235A, N297A, name in Kabat numbering)
heavy: B1 heavy with G104A, P110D
chain: B1 chain
light: B1 light
B4: CE115HA000 G98P one-arm antibody (antibody, human IgG1, kappa, L234A L235A, N297A, name in Kabat numbering)
heavy: B1 heavy with G104P, P110D
chain: B1 chain
light: B1 light
B5: CE115HA000 G98D one-arm antibody (antibody, human IgG1, kappa, L234A L235A, N297A, name in Kabat numbering)
heavy: B1 heavy with G104D, P110D
chain: B1 chain
light: B1 light
B6: CE115HA000 D101V one-arm antibody (antibody, human IgG1, kappa, L234A L235A, N297A, name in Kabat numbering)
heavy: B1 heavy with P110V
chain: B1 chain
light: B1 light
B7: CE115HA000 D101Q one-arm antibody (antibody, human IgG1, kappa, L234A L235A, N297A, name in Kabat numbering)
heavy: B1 heavy with P110Q
chain: B1 chain
light: B1 light
B8: CE115HA000 D101T one-arm antibody (antibody, human IgG1, kappa, L234A L235A, N297A, name in Kabat numbering)
heavy: B1 heavy with P110T
chain: B1 chain
light: B1 light
B9: CE115HA000 G98R one-arm antibody (antibody, human IgG1, kappa, L234A L235A, N297A, name in Kabat numbering)
heavy: B1 heavy with G104R, P110D
chain: B1 chain
light: B1 light
B10: CE115HA000 G98H one-arm antibody (antibody, human IgG1, kappa, L234A L235A, N297A, name in Kabat numbering)
heavy: B1 heavy with G104H, P110D
chain: B1 chain
light: B1 light
B11: CE115HA000 D101Y one-arm antibody (antibody, human IgG1, kappa, L234A L235A, N297A, name in Kabat numbering)
heavy: B1 heavy with P110Y
chain: B1 chain
light: B1 light
B12: CE115HA000 E61A one-arm antibody (antibody, human IgG1, kappa, L234A L235A, N297A, name in Kabat numbering)
heavy: B1 heavy with E64A, P110D
chain: B1 chain
light: B1 light
B13: CE115HA000 E61P one-arm antibody (antibody, human IgG1, kappa, L234A L235A, N297A, name in Kabat numbering)
heavy: B1 heavy with E64P, P110D
chain: B1 chain
light: B1 light
B14: CE115HA000 E61D one-arm antibody (antibody, human IgG1, kappa, L234A L235A, N297A, name in Kabat numbering)
heavy: B1 heavy with E64D, P110D
chain: B1 chain
light: B1 light
B15: CE115HA000 G98Q one-arm antibody (antibody, human IgG1, kappa, L234A L235A, N297A, name in Kabat numbering)
heavy: B1 heavy with G104Q, P110D
chain: B1 chain
light: B1 light
B16: CE115HA000 F29V one-arm antibody (antibody, human IgG1, kappa, L234A L235A, N297A, name in Kabat numbering)
heavy: B1 heavy with F29V, P110D
chain: B1 chain
light: B1 light
B17: CE115HA000 D101S one-arm antibody (antibody, human IgG1, kappa, L234A L235A, N297A, name in Kabat numbering)
heavy: B1 heavy with P110S
chain: B1 chain
light: B1 light
B18: CE115HA000 D101R one-arm antibody (antibody, human IgG1, kappa, L234A L235A, N297A, name in Kabat numbering)
heavy: B1 heavy with P110R
chain: B1 chain
light: B1 light
B19: CE115HA000 G65D one-arm antibody (antibody, human IgG1, kappa, L234A L235A, N297A, name in Kabat numbering)
heavy: B1 heavy with G68D, P110D
chain: B1 chain
light: B1 light
B20: CE115HA000 G98K one-arm antibody (antibody, human IgG1, kappa, L234A L235A, N297A, name in Kabat numbering)
heavy: B1 heavy with G104K, P110D
chain: B1 chain
light: B1 light
B21: CE115HA000 G65E one-arm antibody (antibody, human IgG1, kappa, L234A L235A, N297A, name in Kabat numbering)
heavy: B1 heavy with G68E, P110D
chain: B1 chain
light: B1 light

Molecular target: T1, CD3ε homodimer protein (human, UniProt P07766 23-126, limits assumed, sulfo-tag or biotin label in the ECL assays; amine-coupled to the chip in SPR)
T1 construct: also called human CD3ε homodimer protein; CD3 (CD3ε)
T1 sequence (P07766 23-126 limits assumed): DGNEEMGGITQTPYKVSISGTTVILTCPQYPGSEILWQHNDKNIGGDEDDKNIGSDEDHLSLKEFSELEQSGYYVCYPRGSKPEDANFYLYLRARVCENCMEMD
Assay: SPR Biacore T200; CD3ε homodimer on CM4 chip;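 also: Single-residue variant antibodies injected as analyte over CD3ε homodimer immobilized by amine coupling, run at 25 °C in HBS-EP+ buffer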

Binder	ratio of amounts bound Z=Y/X (altered form / CE115HA000)
B1	0.2
B2	1.07
B3	1.1
B4	1.02
B5	0.26
B6	1.33
B7	2.35
B8	0.79
B9	2.96
B10	1.58
B11	0.49
B12	1.09
B13	1.07
B14	0.91
B15	1.22
B16	0.36
B17	1.16
B18	0.24
B19	0.76
B20	2.83
B21	0.78

Reference: patent publication US20260049138A1 (Chugai, published 2026)
